{"source": "patent US20110138496", "about": "“POLYPEPTIDE FOR IMPROVING TOLERANCE TO IRON DEFICIENCY IN PLANTS, AND USE THEREOF” (published 2011)", "binders": {"B1": {"name": "IDE1 (dsDNA)", "DNA 1": "ATCAAGCATGCTTCTTGC", "DNA 2": "GCAAGAAGCATGCTTGAT"}, "B2": {"name": "IDE2-IDE1x2 (tandemly duplicated IDE1 probe) (dsDNA)", "DNA 1": "AAGCTTGAATTCGATATCTTGAACGGCAAGTTTCACGCTGTCACTATCAAGCATGCTTCTTGCTTGAACGGCAAGTTTCACGCTGTCACTATCAAGCATGCTTCTTGCACGCGTCTCGAGTCGCGAATCG", "DNA 2": "CGATTCGCGACTCGAGACGCGTGCAAGAAGCATGCTTGATAGTGACAGCGTGAAACTTGCCGTTCAAGCAAGAAGCATGCTTGATAGTGACAGCGTGAAACTTGCCGTTCAAGATATCGAATTCAAGCTT"}, "B3": {"name": "IDE2 EMSA probe (dsDNA)", "DNA 1": "GAGAGTGGGTTGAACGGCAAGTTTCACGCTGTCACTATCGTCCTCG", "DNA 2": "CGAGGACGATAGTGACAGCGTGAAACTTGCCGTTCAACCCACTCTC"}}, "key": {"[1]": {"target": "T1, AK072874 B3-domain fragment, MBP fusion (Oryza sativa, UniProt Q7XKC5 Q7XKC5:151-433)", "T1 sequence": "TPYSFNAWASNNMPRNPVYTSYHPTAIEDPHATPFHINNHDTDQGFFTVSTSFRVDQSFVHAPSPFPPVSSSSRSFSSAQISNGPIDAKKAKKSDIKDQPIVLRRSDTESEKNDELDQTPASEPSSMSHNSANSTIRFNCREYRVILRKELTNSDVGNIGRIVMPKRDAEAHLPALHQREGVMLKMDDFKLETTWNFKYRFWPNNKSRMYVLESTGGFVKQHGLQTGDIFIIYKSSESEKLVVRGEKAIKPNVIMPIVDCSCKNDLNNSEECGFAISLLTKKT", "assay": "competition; 30-fold excess mutated IDE1 competitors; CATGC specifically recognized", "conditions": "tags: MBP (pMAL-c2)", "procedure": "(§1) Next, the following operation was carried out for gel shift assay. First, partial ORFs containing a B3 DNA-binding domains of the respective candidate proteins were obtained by use of the following primers: a primer including the sequences shown in, respectively, SEQ ID NOS: 52 (forward) and 53 (reverse), for the 501st-726th amino acids of OsVP1; a primer including the sequences shown in, respectively, SEQ ID NOS: 54 (forward) and 55 (reverse), for the 141st-362nd amino acids of AK107456; a primer including the sequences shown in, respectively, SEQ ID NOS: 56 (forward) and 57 (reverse), for the 151st-433rd amino acids of AK072874; a primer including the sequences shown in, respectively, SEQ ID NOS: 58 (forward) and 59 (reverse), for the 1st-289th amino acids of AK109920; and a primer including the sequences shown in, respectively, SEQ ID NOS: 60 (forward) and 61 (reverse), for the 287th-672nd amino acids of AK101356. Then, each of the partial ORFs was inserted into pMAL-c2 (New England Biolabs) so as to be fused in frame to a maltose-binding protein (MBP) gene. By using a plasmid thus obtained, a fused protein of each of the candidate proteins and the MBP was produced in accordance with manufacturer's instructions. […]"}, "[2]": {"target": "T2, IDEF1 (AK107456) B3-domain fragment, MBP fusion (Oryza sativa, UniProt Q6Z1Z3 SEQ:141-362)", "T2 chain": "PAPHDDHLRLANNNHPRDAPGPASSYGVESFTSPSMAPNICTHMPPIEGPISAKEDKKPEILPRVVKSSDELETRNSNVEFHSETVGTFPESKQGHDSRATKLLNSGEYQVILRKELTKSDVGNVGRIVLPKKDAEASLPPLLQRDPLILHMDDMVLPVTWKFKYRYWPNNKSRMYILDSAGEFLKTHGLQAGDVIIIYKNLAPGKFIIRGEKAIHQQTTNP", "assay": "competition; 30-fold excess mutated IDE1 competitors; CATGC specifically recognized", "conditions": "tags: MBP (pMAL-c2)", "procedure": "as §1"}, "[3]": {"target": "T3, OsVP1 B3-domain fragment, MBP fusion (Oryza sativa, UniProt P37398 P37398:501-726)", "T3 sequence": "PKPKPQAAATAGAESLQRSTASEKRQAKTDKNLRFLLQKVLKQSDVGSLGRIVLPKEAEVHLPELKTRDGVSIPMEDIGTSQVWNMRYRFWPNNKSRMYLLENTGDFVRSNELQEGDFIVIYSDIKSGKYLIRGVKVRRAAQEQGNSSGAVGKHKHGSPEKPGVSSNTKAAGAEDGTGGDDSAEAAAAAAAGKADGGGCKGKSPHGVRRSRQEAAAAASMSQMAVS", "assay": "EMSA; no specific binding", "conditions": "tags: MBP (pMAL-c2); label: labeled (EMSA probe)", "procedure": "as §1"}, "[4]": {"target": "T1, AK072874 B3-domain fragment, MBP fusion", "assay": "EMSA; specific binding", "conditions": "tags: MBP (pMAL-c2); label: labeled (EMSA probe)", "procedure": "as §1"}, "[5]": {"target": "T2, IDEF1 (AK107456) B3-domain fragment, …", "assay": "EMSA; specific binding", "conditions": "tags: MBP (pMAL-c2); label: labeled (EMSA probe)", "procedure": "as §1"}, "[6]": {"target": "T4, IDEF2 NAC domain, MBP fusion (Oryza sativa)", "T4 chain": "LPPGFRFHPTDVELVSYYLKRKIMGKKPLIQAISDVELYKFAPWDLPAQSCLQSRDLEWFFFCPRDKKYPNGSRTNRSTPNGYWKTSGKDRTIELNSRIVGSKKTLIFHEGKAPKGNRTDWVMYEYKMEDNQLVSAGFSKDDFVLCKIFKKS", "assay": "EMSA; 500 ng fusion protein; competition with 30- or 50-fold excess mutants shows CA[A/C]G(TTT) recognized", "conditions": "tags: MBP (pMAL-c2); label: labeled", "procedure": "Then, specific binding of IDEF2 to IDE2 was confirmed by the EMSA method. An IDEF2 NAC domain amplified by a primer including the base sequences shown in, respectively, SEQ ID NOS: 64 and 65, was cloned to a pMAL-c2 vector, and was used to produce an IDEF2-MBP fused protein. Then, a labeled […] including the base sequence (SEQ ID NO: 41) including IDE2 was incubated with 500 ng of the IDEF2-MBP fused protein.\nNext, competition experiments were carried out by addition of 30-fold or 50-fold excess unlabeled competitors. FIG. 10 and (a) of FIG. 12 show mutations introduced into polynucleotide fragments, which were used as the competitors. The IDE2 probe was incubated with the 30-fold or 50-fold excess unlabeled competitors and 500 ng of the IDEF2-MBP fused protein. FIG. 10 and (b) of FIG. 12 show the result of the competition experiments. As shown in FIG. 10 and (b) of FIG. 12, IDEF2 predominantly recognized a CA[A/C]G(TTT) sequence (SEQ ID NO: 33 or 34) within IDE2."}}, "data": [{"binder": "B1", "values": [{"measurement": "binding result", "setting": "[1]", "result": "binds"}, {"measurement": "binding result", "setting": "[2]", "result": "binds"}]}, {"binder": "B2", "values": [{"measurement": "binding result", "setting": "[3]", "result": "no binding"}, {"measurement": "binding result", "setting": "[4]", "result": "binds"}, {"measurement": "binding result", "setting": "[5]", "result": "binds"}]}, {"binder": "B3", "values": [{"measurement": "binding result", "setting": "[6]", "result": "binds"}]}]}
